Experimental data: article PMC3887093

Molecular target: Plasmodium vivax Duffy binding protein region II (DBP-RII), recombinant (Plasmodium vivax) (UniProt P22290)
Assay: ITC; DARC1-60 at 1.3 mM titrated into 1.4 mL of 130 µM DBP-RII; PBS; 10°C; independent two-site binding model after subtraction of both controls; molar ratios in monomers of DBP-RII

Sequence of UniProt P22290 (P22290 211-525): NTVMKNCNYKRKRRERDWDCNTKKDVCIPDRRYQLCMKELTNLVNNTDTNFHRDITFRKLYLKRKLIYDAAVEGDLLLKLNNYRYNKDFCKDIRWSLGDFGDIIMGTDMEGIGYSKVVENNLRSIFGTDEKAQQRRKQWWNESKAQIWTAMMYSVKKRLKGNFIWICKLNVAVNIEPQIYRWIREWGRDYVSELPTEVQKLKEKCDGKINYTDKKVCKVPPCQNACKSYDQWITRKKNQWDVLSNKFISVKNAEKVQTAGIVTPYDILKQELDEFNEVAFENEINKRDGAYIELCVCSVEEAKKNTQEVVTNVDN

DARC N-terminal ectodomain, residues 1-60, unsulfated, three cysteines mutated to alanine (from UniProt Q16570 1-60) (domain or fragment)
Kd1 (first binding event, heterotrimer; two independent sites fit): 2180 nM
Kd2 (second binding event, heterotetramer; two independent sites fit): 88.5 nM
Kd of the first binding event (two independent sites fit): 2180 nM
dH1 (first binding event): -2.66 kcal/mol
dH2 (second binding event): -3.34 kcal/mol
n1 (first binding event, per monomer of DBP-RII): 0.44
n2 (second binding event, per monomer of DBP-RII): 0.5
stoichiometry N: 1
